Here are results for one variant from paper PMC6605747.

B1: Flag-tagged mouse CXCR4 C-terminally fused via a TEV protease cleavage site to tTA [mouse] / Myc-tagged COMMD8 C-terminally fused to TEV protease [not stated (mouse cDNA cloned for the MSCV2.2 vectors)] (parent)
chain 1: MEPEEGTPLWRLQKLPPEQGAGLLHKIIDGFCGRAYPAHQDYHSVWNSAEWKHVLEDVTTFFKAVVGKNFSEEETLQQLNQLNSCHQEAVLKCLKSRRNEIKQALLGEIVDISCAQLQDFDWQLKLALSSDKIATLQMPLLNLHLDVKEDDKVKPYTVEMSKEELQSLISSLEAANKVVLQLK
chain 2: MEPISVSIYTSDNYSEEVGSGDYDSNKEPCFRDENVHFNRIFLPTIYFIIFLTGIVGNGLVILVMGYQKKLRSMTDKYRLHLSVADLLFVITLPFWAVDAMADWYFGKFLCKAVHIIYTVNLYSSVLILAFISLDRYLAIVHATNSQRPRKLLAEKAVYVGVWIPALLLTIPDFIFADVSQGDISQGDDRYICDRLYPDSLWMVVFQFQHIMVGLILPGIVILSCYCIIISKLSHSKGHQKRKALKTTVILILAFFACWLPYYVGISIDSFILLGVIKQGCDFESIVHKWISITEALAFFHCCLNPILYAFLGAKFKSSAQHALNSMSRGSSLKILSKGKRGGHSSVSTESESSSFHSS

The assay covers variants of B1. Kind of assay: Tango assay. The conditions noted are these: with Myc-tagged COMMD8 C-terminally fused to TEV protease [not stated (mouse cDNA cloned for the MSCV2.2 vectors)]; HTL cells; firefly luciferase normalized to Renilla luciferase, fold increase over unstimulated cells; read off a plot.
As to chain 2 MEPISVSIYTSDNYSEEVGSGDYDSNKEPCFRDENVHFNRIFLPTIYFIIFLTGIVGNGLVILVMGYQKKLRSMTDKYRLHLSVADLLFVITLPFWAVDAMADWYFGKFLCKAVHIIYTVNLYSSVLILAFISLDRYLAIVHATNSQRPRKLLAEKAVYVGVWIPALLLTIPDFIFADVSQGDISQGDDRYICDRLYPDSLWMVVFQFQHIMVGLILPGIVILSCYCIIISKLSHSKGHQKRKALKTTVILILAFFACWLPYYVGISIDSFILLGVIKQGCDFESIVHKWISITEALAFFHCCLNPILYAFLGAKFKSSAQHALNSMSRGSSLKILSKGKRGGHSSVSTESEAAAFHSS [chain 2 S353A S354A S355A], the response (fold increase) was determined as 0.87.
